The target of test [1] is T1, human CD33-His (extracellular domain Asp 18-His 259) (human, UniProt P20138 18-259).
T1 construct: range 18-259; bought protein; also called hCD33-his; human CD33 protein; not shown: His tag
Description: competitive ELISA vs coated S006-NB147-220 3ug/mL; soluble 25ug/ml. For orientation: In an ELISA, binding on a coated surface is turned into a signal by an enzyme label.

Test [2] addresses T2, human CD33-his protein (human, UniProt P20138 18-259).
T2 construct: range 18-259; bought protein; also called hCD33-his; recombinant human CD33-his; not shown: His tag
Description: competition ELISA, coated human CD33-his, vs Biotin-C33B904 at EC80; antibody 0.49 nM. The protocol: (§1) The plate was sealed with a plastic film and incubated at 4° C. overnight, washed twice with PBS the next day, and a blocking solution [PBS+2% (w/w) BSA] was added for blocking at room temperature for 2 h. The blocking solution was discarded, and VHH-Fc antibody or negative control antibody serially diluted from 100 nM was added at 50 μL/well. After incubation at 37° C. for 2 h, the plate was washed 3 times with PBS. A secondary antibody labeled with HRP (horseradish peroxidase) (purchased from Sigma, Cat. No. A0170) was added. After incubation for 1 h at 37° C., the plate was washed 5 times with PBS. A TMB substrate was added at 50 μL/well. After incubation at room temperature for 10 min, a stop solution (1.0 N HCl) was added at 50 μL/well. The OD450 nm values were read on an ELISA plate reader (Multimode Plate Reader, EnSight, purchased from Perkin Elmer). The assay results for the binding of the VHH-Fc to hCD33-his by ELISA are shown in FIGS. 7A and 7B and Tables 11 and 12. […] The IgG control was hIgG1, and the data in the table are OD450 nm values.
(§2) ELISA plates were coated with 2 μg/mL human CD33-his protein according to the method in Example 5.1; the Biotin-C331B904 antibody was subjected to a gradient dilution from 15 μg/mL, and EC80 values (0.18 μg/mL) were calculated. […] OD_{450 nm} values were read using an ELISA plate reader (Insight, purchased from PerkinElmer). […]

Test [3] deals with T2, human CD33-his protein. In words: competition ELISA, coated human CD33-his, vs Biotin-C33B904 at EC80; antibody 500 nM. As for the experimental part: as §1, §2
Test [4] deals with T2, human CD33-his protein. Description: competition ELISA, coated human CD33-his, vs Biotin-C33B904 at EC80; antibody 250.00 nM. As for the experimental part: as §1, §2

T2 sequence (P20138 18-259 limits assumed): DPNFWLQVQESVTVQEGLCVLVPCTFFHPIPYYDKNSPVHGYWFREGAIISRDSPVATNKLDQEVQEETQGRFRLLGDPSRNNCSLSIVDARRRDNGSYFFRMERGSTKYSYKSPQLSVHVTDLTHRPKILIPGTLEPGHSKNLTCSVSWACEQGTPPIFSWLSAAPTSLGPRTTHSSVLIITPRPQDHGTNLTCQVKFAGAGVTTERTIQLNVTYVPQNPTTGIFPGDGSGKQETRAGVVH
T1 sequence (P20138 18-259 limits assumed): as above

B1: C33B904 hIgG1 (antibody, V domains shown)
VH: EVQLVESGGGLVQPGRSLRLSCAASGFTFDDYAMHWVRQAPGKGLEWVSGIGWSGGSIVYADSVKGRFTISRDNAKNSLYLQMNSLRAEDTALYYCAKDSPYGDFFDYWGQGTLVTVSS
VL: DIVMTQSPDSLAVSLGERATINCKSSQTVFYSSNNKNYLAWYQQKPGQPPKLLISWASTRKSGVPDRFSGSGSGTDFTLTVSSLQAEDVAVYYCQHYYSTPYTFGQGTKLEIKR
notes: intact human IgG1; variable regions from US20190382481A1; also called C33B3904; C331B904
Turning to B1, the inhibition rate in test [1] is 98%.

B2: C33B904 (antibody, human IgG1, kappa, V domains shown)
VH: B1 VH
VL: B1 VL
notes: control antibody, intact human IgG1 form; variable regions from US20190382481A1; also called C33B904 hIgG1; C331B904
For B2, the “OD450 (Biotin-C33B904 signal)” value is 2.44 in test [2], 0.08 in test [3] and 0.1 in test [4].
